Tests used:
[1] = biological target: microtubules polymerised from porcine brain tubulin (GMPCPP-stabilised microtubules and seeds, and dynamic microtubules elongating or nucleated from Atto647N- or Atto647-tubulin) (porcine (endogenous in pig brain)) (UniProt P02550); experiment: TIRF microscopy; microtubules elongating from surface-immobilized GMPCPP-seeds severed by laser ablation in 40 nM mScarlet-NuMA^FL and 10 µM Atto647N-tubulin; NuMA microscopy buffer, 30°C; new minus and plus ends scored
[2] = biological target: microtubules polymerised from porcine brain tubulin (GMPCPP-stabilised microtubules and seeds, and dynamic microtubules elongating or nucleated from Atto647N- or Atto647-tubulin) (porcine (endogenous in pig brain)) (UniProt P02550); experiment: TIRF microscopy; γTuRC nucleation assay: biotinylated mBFP-γTuRC immobilized on the surface, 10 µM Atto647-tubulin and 5-30 nM mScarlet-NuMA^FL; γTuRC-nucleated and spontaneously (solution-) nucleated microtubules compared; γTuRC microscopy buffer, 33°C

Sequence of microtubules polymerised from porcine brain tubulin (GMPCPP-stabilised microtubules and seeds, and dynamic microtubules elongating or nucleated from Atto647N- or Atto647-tubulin) (porcine (endogenous in pig brain)) (P02550 other isoform, or with tags, fused parts or gaps, chain 1 of 2): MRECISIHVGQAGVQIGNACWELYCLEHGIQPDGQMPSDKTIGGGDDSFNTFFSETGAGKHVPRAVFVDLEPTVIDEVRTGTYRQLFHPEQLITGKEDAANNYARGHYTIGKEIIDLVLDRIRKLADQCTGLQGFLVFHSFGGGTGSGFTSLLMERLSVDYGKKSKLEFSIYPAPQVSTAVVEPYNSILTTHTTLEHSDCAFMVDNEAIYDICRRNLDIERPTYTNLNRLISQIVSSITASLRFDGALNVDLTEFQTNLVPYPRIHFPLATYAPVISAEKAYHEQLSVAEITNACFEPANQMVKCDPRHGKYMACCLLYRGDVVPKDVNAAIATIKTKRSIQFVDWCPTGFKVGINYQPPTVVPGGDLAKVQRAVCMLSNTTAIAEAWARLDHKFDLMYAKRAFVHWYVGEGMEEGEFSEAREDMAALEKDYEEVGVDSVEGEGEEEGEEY
Sequence of microtubules polymerised from porcine brain tubulin (GMPCPP-stabilised microtubules and seeds, and dynamic microtubules elongating or nucleated from Atto647N- or Atto647-tubulin) (porcine (endogenous in pig brain)) (chain, as listed by the source, chain 2 of 2): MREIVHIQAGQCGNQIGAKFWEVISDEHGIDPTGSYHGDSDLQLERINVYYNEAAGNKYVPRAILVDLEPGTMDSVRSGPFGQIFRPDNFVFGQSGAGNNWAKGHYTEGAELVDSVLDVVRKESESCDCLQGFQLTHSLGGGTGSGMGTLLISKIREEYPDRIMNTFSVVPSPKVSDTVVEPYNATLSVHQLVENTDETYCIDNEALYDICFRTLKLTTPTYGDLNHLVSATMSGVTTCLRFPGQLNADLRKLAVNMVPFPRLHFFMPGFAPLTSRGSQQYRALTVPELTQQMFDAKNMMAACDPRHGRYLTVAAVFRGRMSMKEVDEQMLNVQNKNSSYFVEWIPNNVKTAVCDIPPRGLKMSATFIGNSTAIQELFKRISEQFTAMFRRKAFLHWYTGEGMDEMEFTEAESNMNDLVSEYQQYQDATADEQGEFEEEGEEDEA

Question: With “mScarlet-tagged full-length human NuMA, mScarlet-NuMA^FL, Q14980-1 1-2115” as the substance, how does the percent of ablation-generated minus ends with NuMA bound [1] read?
Answer: 83%

Question: What about the percent of minus ends of spontaneously nucleated microtubules with strong NuMA accumulation (highest NuMA concentration) [2] of the same substance?
Answer: 93%
